# Source: patent publication US20110118131A1 (published 2011)
# Changes are numbered by the printed parent chain. Names may count otherwise.
# T1: Ep-CAM (UniProt P16422 24-265, limits assumed)
# T1 sequence (looked up): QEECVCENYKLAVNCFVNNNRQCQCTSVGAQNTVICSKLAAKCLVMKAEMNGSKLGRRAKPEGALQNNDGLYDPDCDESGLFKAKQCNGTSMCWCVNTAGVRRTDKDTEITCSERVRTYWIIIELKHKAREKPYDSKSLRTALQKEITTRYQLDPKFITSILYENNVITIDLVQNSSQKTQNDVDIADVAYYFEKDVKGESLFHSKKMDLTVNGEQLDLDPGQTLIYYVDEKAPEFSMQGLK
# B1: XPA23 light chain S93G (Fab, V domains shown)
# VH: EVQLLESGGGLVQPGGSLRLSCAASGFTFSKYFMFWVRQAPGKGLEWVSVISPSGGMTRYADSVKGRFTISRDNSKNTLYLQMNSLRAEDTAVYYCARVGYGGNSDYWGQGTLVTVSS
# VL: DIQMTQSPSSVSASVGDRLTIICRASQDINRWLAWYQQTPGNAPKLLIHSATSLQSGVPSRFSGSGSGTDFTLTINSLQPEDFATYYCQQADGFPLTFGGGTKVEIK
# notes: Single light chain substitution; Fab in periplasmic extract; also called C5A (XPA23) S93G
# B2: XPA23 light chain S93T (Fab, V domains shown)
# VH: B1 VH
# VL: B1 VL with G93T
# notes: Single light chain substitution; Fab in periplasmic extract; also called C5A (XPA23) S93T
# B3: XPA23 light chain S93V (Fab, V domains shown)
# VH: B1 VH
# VL: B1 VL with G93V
# notes: Single light chain substitution; Fab in periplasmic extract; also called C5A (XPA23) S93V
# B4: XPA23 light chain S93P (Fab, V domains shown)
# VH: B1 VH
# VL: B1 VL with G93P
# notes: Single light chain substitution; Fab in periplasmic extract; also called C5A (XPA23) S93P
# B5: XPA23 light chain S93L (Fab, V domains shown)
# VH: B1 VH
# VL: B1 VL with G93L
# notes: Single light chain substitution; Fab in periplasmic extract; also called C5A (XPA23) S93L
# B6: XPA23 light chain S93I (Fab, V domains shown)
# VH: B1 VH
# VL: B1 VL with G93I
# notes: Single light chain substitution; Fab in periplasmic extract; also called C5A (XPA23) S93I
# B7: ING-1 Fab, heavy chain A102L (Fab, V domains shown)
# VH: QIQLVQSGPELKKPGETVKISCKASGYTFTKYGMNWVKQAPGKGLKWMGWINTYTEEPTYGDDFKGRFAFSLETSASTANLQINNLKSEDTATYFCARFGSLVDYWGQGTSVTVSS
# VL: DIVMTQAAFSNPVTLGTSGSISCRSSKSLLHSNGITYLYWYLQKPGQSPQLLIYQMSNLASGVPDRFSSSGSGTDFTLRISRVEAEDVGVYYCAQNLELPRTFGGGTKLEMKR
# notes: Fab in periplasmic extract
# B8: ING-1 Fab, heavy chain P58T (Fab, V domains shown)
# VH: B7 VH with P58T, L102A
# VL: B7 VL
# notes: Fab in periplasmic extract
# B9: ING-1 Fab, heavy chain N52G (Fab, V domains shown)
# VH: B7 VH with N52G, L102A
# VL: B7 VL
# notes: Fab in periplasmic extract
# B10: ING-1 Fab, heavy chain N52V (Fab, V domains shown)
# VH: B7 VH with N52V, L102A
# VL: B7 VL
# notes: Fab in periplasmic extract
# B11: ING-1 Fab, heavy chain T53G (Fab, V domains shown)
# VH: B7 VH with T53G, L102A
# VL: B7 VL
# notes: Fab in periplasmic extract
# B12: ING-1 Fab, heavy chain G33V (Fab, V domains shown)
# VH: B7 VH with G33V, L102A
# VL: B7 VL
# notes: Fab in periplasmic extract
# B13: ING-1 Fab, heavy chain W50G (Fab, V domains shown)
# VH: B7 VH with W50G, L102A
# VL: B7 VL
# notes: Fab in periplasmic extract
# B14: ING-1 Fab, heavy chain T55G (Fab, V domains shown)
# VH: B7 VH with T55G, L102A
# VL: B7 VL
# notes: Fab in periplasmic extract
# B15: ING-1 Fab, heavy chain E57L (Fab, V domains shown)
# VH: B7 VH with E57L, L102A
# VL: B7 VL
# notes: Fab in periplasmic extract
# B16: ING-1 Fab, heavy chain G33T (Fab, V domains shown)
# VH: B7 VH with G33T, L102A
# VL: B7 VL
# notes: Fab in periplasmic extract
# B17: ING-1 Fab, heavy chain S101L (Fab, V domains shown)
# VH: B7 VH with S101L, L102A
# VL: B7 VL
# notes: Fab in periplasmic extract
# B18: ING-1 Fab, heavy chain E57P (Fab, V domains shown)
# VH: B7 VH with E57P, L102A
# VL: B7 VL
# notes: Fab in periplasmic extract
# B19: ING-1 Fab, heavy chain D104L (Fab, V domains shown)
# VH: B7 VH with L102A, D104L
# VL: B7 VL
# notes: Fab in periplasmic extract
# B20: ING-1 Fab, heavy chain W50L (Fab, V domains shown)
# VH: B7 VH with W50L, L102A
# VL: B7 VL
# notes: Fab in periplasmic extract
# B21: ING-1 Fab, heavy chain Y32G (Fab, V domains shown)
# VH: B7 VH with Y32G, L102A
# VL: B7 VL
# notes: Fab in periplasmic extract
# B22: ING-1 Fab, heavy chain N52T (Fab, V domains shown)
# VH: B7 VH with N52T, L102A
# VL: B7 VL
# notes: Fab in periplasmic extract
# B23: ING-1 Fab, heavy chain N52A (Fab, V domains shown)
# VH: B7 VH with N52A, L102A
# VL: B7 VL
# notes: Fab in periplasmic extract
# B24: ING-1 Fab, heavy chain W50A (Fab, V domains shown)
# VH: B7 VH with W50A, L102A
# VL: B7 VL
# notes: Fab in periplasmic extract
# B25: ING-1 Fab, heavy chain Y32A (Fab, V domains shown)
# VH: B7 VH with Y32A, L102A
# VL: B7 VL
# notes: Fab in periplasmic extract
# B26: ING-1 Fab, heavy chain G33A (Fab, V domains shown)
# VH: B7 VH with G33A, L102A
# VL: B7 VL
# notes: Fab in periplasmic extract
# B27: ING-1 Fab, heavy chain D104P (Fab, V domains shown)
# VH: B7 VH with L102A, D104P
# VL: B7 VL
# notes: Fab in periplasmic extract
# B28: ING-1 Fab, heavy chain T53P (Fab, V domains shown)
# VH: B7 VH with T53P, L102A
# VL: B7 VL
# notes: Fab in periplasmic extract
# B29: ING-1 Fab, heavy chain N52I (Fab, V domains shown)
# VH: B7 VH with N52I, L102A
# VL: B7 VL
# notes: Fab in periplasmic extract
# B30: ING-1 Fab, heavy chain W50T (Fab, V domains shown)
# VH: B7 VH with W50T, L102A
# VL: B7 VL
# notes: Fab in periplasmic extract
# B31: ING-1 Fab, heavy chain W50I (Fab, V domains shown)
# VH: B7 VH with W50I, L102A
# VL: B7 VL
# notes: Fab in periplasmic extract
# B32: ING-1 Fab, heavy chain D104T (Fab, V domains shown)
# VH: B7 VH with L102A, D104T
# VL: B7 VL
# notes: Fab in periplasmic extract
# B33: ING-1 Fab, heavy chain E56P (Fab, V domains shown)
# VH: B7 VH with E56P, L102A
# VL: B7 VL
# notes: Fab in periplasmic extract
# B34: ING-1 Fab, heavy chain D104V (Fab, V domains shown)
# VH: B7 VH with L102A, D104V
# VL: B7 VL
# notes: Fab in periplasmic extract
# B35: ING-1 Fab, heavy chain N52L (Fab, V domains shown)
# VH: B7 VH with N52L, L102A
# VL: B7 VL
# notes: Fab in periplasmic extract
# B36: ING-1 Fab, heavy chain N52P (Fab, V domains shown)
# VH: B7 VH with N52P, L102A
# VL: B7 VL
# notes: Fab in periplasmic extract
# B37: ING-1 Fab, heavy chain W50P (Fab, V domains shown)
# VH: B7 VH with W50P, L102A
# VL: B7 VL
# notes: Fab in periplasmic extract
# B38: ING-1 Fab, heavy chain G100P (Fab, V domains shown)
# VH: B7 VH with G100P, L102A
# VL: B7 VL
# notes: Fab in periplasmic extract
# B39: ING-1 Fab, heavy chain K31L (Fab, V domains shown)
# VH: B7 VH with K31L, L102A
# VL: B7 VL
# notes: Fab in periplasmic extract
# B40: ING-1 Fab, heavy chain D104A (Fab, V domains shown)
# VH: B7 VH with L102A, D104A
# VL: B7 VL
# notes: Fab in periplasmic extract
# B41: ING-1 Fab, heavy chain W50V (Fab, V domains shown)
# VH: B7 VH with W50V, L102A
# VL: B7 VL
# notes: Fab in periplasmic extract
# B42: ING-1 Fab, heavy chain T59P (Fab, V domains shown)
# VH: B7 VH with T59P, L102A
# VL: B7 VL
# notes: Fab in periplasmic extract
# Target: IL-1β (UniProt P01584 117-269)
# Experiment: Biacore, Fab periplasmic extract on IL-1β
fold difference in affinity vs original,binding result,Binder
0.75 fold,–,B1
1.47 fold,–,B2
3.81 fold,–,B3
–,no binding,B4
1.08 fold,–,B5
1.35 fold,–,B6

# Target: T1, Ep-CAM
# Experiment: Biacore, Fab periplasmic extract on immobilised Epcam
binding result,fold difference in affinity vs original,Binder
no binding,–,B7
–,1 fold,B8
no binding,–,B9
no binding,–,B10
no binding,–,B11
–,0.04 fold,B12
–,0.03 fold,B13
–,0.02 fold,B14
no binding,–,B15
–,0.01 fold,B16
no binding,–,B17
no binding,–,B18
no binding,–,B19
–,0.04 fold,B20
–,0.02 fold,B21
no binding,–,B22
no binding,–,B23
–,0.03 fold,B24

binding result,fold difference in affinity vs original,Binder
–,0.01 fold,B25
–,0.06 fold,B26
no binding,–,B27
no binding,–,B28
no binding,–,B29
–,0.03 fold,B30
–,0.07 fold,B31
no binding,–,B32
–,0.01 fold,B33
no binding,–,B34
no binding,–,B35
no binding,–,B36
no binding,–,B37
no binding,–,B38
–,0.6 fold,B39
no binding,–,B40
–,0.02 fold,B41
no binding,–,B42
